T1: native human CXCR2 expressed by human neutrophils (Homo sapiens, UniProt P25025)
T1 construct: native human CXCR2 expressed by human neutrophils; endogenous in cells; host or cells: human peripheral blood cells (buffy coat, PBMC-enriched fractions, anticoagulated blood): neutrophils, monocytes
T1 sequence (P25025 1-360): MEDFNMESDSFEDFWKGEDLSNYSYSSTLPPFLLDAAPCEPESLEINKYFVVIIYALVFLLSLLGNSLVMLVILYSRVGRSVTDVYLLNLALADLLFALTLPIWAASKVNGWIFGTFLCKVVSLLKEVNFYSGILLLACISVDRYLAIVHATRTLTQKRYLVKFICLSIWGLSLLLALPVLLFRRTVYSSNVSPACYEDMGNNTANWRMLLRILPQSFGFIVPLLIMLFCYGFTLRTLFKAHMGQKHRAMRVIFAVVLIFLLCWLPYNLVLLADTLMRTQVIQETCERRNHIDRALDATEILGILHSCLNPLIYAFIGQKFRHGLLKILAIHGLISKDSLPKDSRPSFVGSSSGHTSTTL


Columns and labels:
hCXCR2 knock-in mice = test: House dust mite (HDM) severe asthma model in hCXCR2 knock-in mice; format: in vivo, mouse; details: 10 mg/kg intraperitoneal days 5 and 12, versus vehicle
Text: hCXCR2 knock-in mice were generated by use of homologous recombination in embryonic stem (ES) cells to insert the human CXCR2 into exon 1 of the mouse CXCR2 gene. The single coding exon of human CXCR2 was inserted into a vector with 5′ and 3′ arms homologous to the genomic location of the mouse coding exon of CXCR2, giving rise to a gene structure that coded for human CXCR2 but retained the mouse non-coding and regulatory elements. This vector was electroporated into C57B1/6 mouse ES cells which were incorporated into C57B1/6 mouse blastocysts and transplanted into pseudopregnant female mice. Pups were backcrossed to the parental C57B1/6 strain and offspring screened by southern blot for germline transmission of the human CXCR2 gene. Mice heterozygous for human CXCR2 were intercrossed to give a homozygous human CXCR2 line and phenotype was confirmed by analysis of binding of anti-mouse and anti-human CXCR2 antibodies by flow cytometry.
The anti-CXCR2 antibody BKO-4A8-mIgG1 (SEQ ID NOs: 113 and 114) was generated by formatting the variable heavy and light chains of BKO-4A8 onto an effector function-reduced mouse IgG1 constant region. Female hCXCR2 knock-in mice were subjected to sensitization with 50 μg HDM in complete Freund's adjuvant (CFA) administered by subcutaneous injection on day 0 and intranasal challenge with […] without CFA on day 14. Animals were treated with vehicle or BKO-4A8-mIgG1 (10 mg/kg) via intraperitoneal injection on days 5 and 12. Inflammatory responses were characterized at endpoint on day 16 by total and differential cell counts in bronchoalveolar lavage (BAL) fluid of the right lung. The left lung was fixed in 10% formalin for histopathology and mucus production assessment.
Statistical evaluation was performed using a Mann-Whitney nonparametric unpaired t test with outliers identified using Grubbs' test (Alpha=0.01) to discern statistically significant differences between the vehicle and treatment groups. All statistical analyses were performed using GraphPad Prism™ 7.01.

[1] = target: T1, native human CXCR2 expressed by human neutrophils; test: Flow cytometry binding to human blood cells (neutrophils, monocytes, PBMC preparations); details: FIG. 2, MFI
Method: (§1) Whole human buffy coat, PBMC enriched fractions prepared from human peripheral blood buffy coat or cynomolgus monkey whole blood was used for analysis of antibody binding activity by flow cytometry. Briefly, blood was untreated or diluted 1:1 in sterile filtered room temperature phosphate-buffered saline (PBS). 30 mL samples were layered over 15 mL Lymphoprep™ (Stem Cell Technologies, cat #07851). Peripheral blood mononuclear cells (PBMC) were enriched by room temperature centrifugation at 700 g for 30 minutes with no braking. The PBMC layer was isolated and cells washed in PBS containing 2 mM EDTA with low speed centrifugation at 200 g, to remove platelet contamination. Whole blood or PBMC enriched cell fractions were resuspended in red blood cell lysing solution (BioLegend, 420301). Viable cell counts were determined and cells resuspended at 1×10^7 cells per mL in FACS buffer (1×PBS+0.5% (w/v) BSA+2 mM EDTA pH 7.2).
(§2) Flow cytometry binding assays using whole blood or PBMC enriched preparations: Binding assays to detect CXCR2 on blood neutrophil populations using test antibodies were performed essentially as described for assays using transiently transfected Expi293F™ cells. Binding of antibodies to human CXCR2 on the surface of the neutrophils was measured using anti-CXCR2 antibody directly conjugated to the fluorophore allophycocyanin (APC). Matched isotype control antibodies were included for comparison. Cells were incubated with lineage specific antibodies and 2 μg/ml of APC conjugated anti-CXCR2 antibody or isotype control prepared in ice cold 3% BSA/PBS for a minimum of 30 minutes at 4° C. The commercial anti-CXCR2 antibody (clone 48331 (R&D Systems FAB331A)) was used as a positive control. Neutrophil populations were identified by characteristic granularity and size, and positive binding of commercially available antibodies against CD10 (Biolegend, clone H110a, catalogue number 312204). Cells were washed and fixed (BioLegend Fixation buffer, 420801) prior to analysis. The level of fluorescence on the cell surface was measured by flow cytometry. Using this method, test anti-CXCR2 antibodies were detected binding neutrophils from both human and cynomolgus monkey.
To further characterize the anti-CXCR2 antibody BKO-4A8-101c, the ability to bind CXCR2 on neutrophils was tested on anticoagulated human blood. Binding was measured using BKO-4A8-101c directly conjugated to fluorophore APC. Matched isotype control antibodies conjugated to APC were included for comparison. Cells were incubated with lineage-specific antibodies and 2 μg/mL of APC conjugated anti-CXCR2 antibody or isotype control. The level of fluorescence on the cell surface was measured by flow cytometry. […]

[2] = system: native cynomolgus CXCR2 expressed by cynomolgus neutrophils; test: Flow cytometry binding to cynomolgus blood neutrophils; set-up: species or system cynomolgus monkey; details: FIG. 2, MFI
native cynomolgus CXCR2 expressed by cynomolgus neutrophils, sequence (as listed by the source): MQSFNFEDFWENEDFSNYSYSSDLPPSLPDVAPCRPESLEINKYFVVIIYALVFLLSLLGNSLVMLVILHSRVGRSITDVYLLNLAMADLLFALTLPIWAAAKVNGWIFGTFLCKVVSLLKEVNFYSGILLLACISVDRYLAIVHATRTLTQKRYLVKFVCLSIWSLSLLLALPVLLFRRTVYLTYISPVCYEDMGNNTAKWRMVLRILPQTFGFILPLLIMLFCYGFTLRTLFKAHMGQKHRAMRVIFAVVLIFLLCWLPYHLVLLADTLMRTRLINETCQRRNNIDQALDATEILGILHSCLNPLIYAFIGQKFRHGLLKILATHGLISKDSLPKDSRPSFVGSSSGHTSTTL
Method: as §1
as §2, with “Neutrophil populations were identified by characteristic granularity and size, and positive binding of commercially available antibodies against CD10 (Biolegend, clone H110a, catalogue number 312204). Cells were washed and fixed (BioLegend Fixation buffer, 420801) prior to analysis.” left out

Row | binding to native human CXCR2 on human PBMCs / neutrophils [1] | Molecule | goblet cell hyperplasia (hCXCR2 knock-in mice; p=0.0052) | reduction in BAL eosinophil counts (hCXCR2 knock-in mice; p=0.017) [%] | reduction in BAL neutrophil counts (hCXCR2 knock-in mice; p=0.028) [%] | binding to native cynomolgus CXCR2 on cynomolgus PBMCs / neutrophils [2]
1 |  | BKO-4A8-mIgG1: BKO-4A8 variable chains on an effector function-reduced mouse IgG1 constant region (SEQ ID NOs: 113 and 114) (antibody, effector function-reduced mouse IgG1 constant region; BKO-4A8-mIgG1 VH; BKO-4A8-mIgG1 VL) heavy: EVQLLESGGGLVQPGGSLRLSCAASGFTFSSSTMSWVRQAPGKGLEWVSAISGRGRNTYYADSVKGRFTISRDNSRNTLYLQMNSLRAEDTAVYYCAIQMGYWGQGILVTVSSAKTTPPSVYPLAPGSAAQTNSMVTLGCLVKGYFPEPVTVTWNSGSLSSGVHTFPAVLQSDLYTLSSSVTVPSSPRPSETVTCNVAHPASSTKVDKKIVPRDCGCKPCICTVPEVSSVFIFPPKPKDVLTITLTPKVTCVVVAISKDDPEVQFSWFVDDVEVHTAQTQPREEQFNSTFRSVSELPIMHQDWLNGKEFKCRVNSAAFPAPIEKTISKTKGRPKAPQVYTIPPPKEQMAKDKVSLTCMITDFFPEDITVEWQWNGQPAENYKNTQPIMNTNGSYFVYSKLNVQKSNWEAGNTFTCSVLHEGLHNHHTEKSLSHSPG light: QSALTQPPSASGSPGQSVTISCIGTSSDVGGYNYVSWYQQHPDKAPKLMIYEVNKRPSGVPDRFSGSKSGNTASLTVSGLQAEDEADYYCSSYAGNNNFGVFGGGTKLTVLGQPKSSPSVTLFPPSSEELETNKATLVCTITDFYPGVVTVDWKVDGTPVTQGMETTQPSKQSNNKYMASSYLTLTARAWERHSSYSCQVTHEGHTVEKSLSRADCS | reduced goblet cell hyperplasia | > 60 | > 60 | 
2 | substantial levels of binding | BKO-9C3_a: recombinant, VH SEQ ID NO: 49, VL SEQ ID NO: 50 (antibody, V domains shown, BKO_9C3_H8_G08_VH; BKO_9C3_L1_F01_VL) VH: EVQVLESGGGLVQPGGSLRLSCAASGFTFRSYAMSWVRQAPGKGLEWVSAISGSGGSTYYADSVKGRFTISRDKSKNTLYLQMNSLRAEDTAVYYCAIQLGYWGQGTLVTVSS VL: QSALTQPPSASGSPGQSVIISCTGTSSDVGGYNYVSWYQQHPGKVPKLMIYEVSKRPSGVPDRFSGSKSGNTASLTVSGLQAEDEADYYCTSYAGSNNFGVFGGGTKLTVL |  |  |  | above average levels of binding
